Molecular target: T1, soluble human FcRn complexed with β2-microglobulin (human, UniProt P61769 21-119, limits assumed)
T1 construct: also called hFcRn
Assay: Biacore SPR, pH 7.0;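 note: test antibodies captured on a Protein L chip with human FcRn flowed over as analyte, KD obtained as the ratio of dissociation to association rate constants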

| Kd | Binder |
| --- | --- |
| 336 nM | IgG1-F1349 (antibody, EU numbering; copies: 2 + 2) heavy: QVQLQESGPGLVKPSETLSLTCAVSGHSISHDHAWSWVRQPPGEGLEWIGFISYSGITNYNPSLQGRVTISRDNSKNTLYLQMNSLRAEDTAVYYCARSLARTTAMDYWGEGTLVTVSSASTKGPSVFPLAPSSKSTSGGTAALGCLVKDYFPEPVTVSWNSGALTSGVHTFPAVLQSSGLYSLSSVVTVPSSSLGTQTYICNVNHKPSNTKVDKKVEPKSCDKTHTCPPCPAPELRGGPKVFLFPPKPKDTLYISRTPEVTCVVVDVSHEDPEVKFNWYVDGVEVHNAKTKPREEQYNSTYRVVSVLTVLHQDWLNGKEYKCKVSNKALPAPIEKTISKAKGQPREPQVYTLPPSRDELTKNQVSLTCLVKGFYPSDIAVEWESNGQPENNYKTTPPVLDSDGSFFLYSKLTVDKSRWQQGNVFSCSVMHEALHYHTTRKELSLSP light: not shown |
| 162 nM | IgG1-F1351 (antibody, EU numbering; copies: 2 + 2) heavy: QVQLQESGPGLVKPSETLSLTCAVSGHSISHDHAWSWVRQPPGEGLEWIGFISYSGITNYNPSLQGRVTISRDNSKNTLYLQMNSLRAEDTAVYYCARSLARTTAMDYWGEGTLVTVSSASTKGPSVFPLAPSSKSTSGGTAALGCLVKDYFPEPVTVSWNSGALTSGVHTFPAVLQSSGLYSLSSVVTVPSSSLGTQTYICNVNHKPSNTKVDKKVEPKSCDKTHTCPPCPAPELRGGPKVFLFPPKPKDTLYISRTPEVTCVVVDVSHEDPEVKFNWYVDGVEVHNAKTKPREEQYNSTYRVVSVLTVLHQDWLNGKEYKCKVSNKALPAPIEKTISKAKGQPREPQVYTLPPSRDELTKNQVSLTCLVKGFYPSDIAVEWESNGQPENNYKTTPPVLDSDGSFFLYSKLTVDKSRWQQGNVFSCSVMHEALHYHFTRKELSLSP light: not shown |
| 229 nM | IgG1-F1354 (antibody, EU numbering; copies: 2 + 2) heavy: QVQLQESGPGLVKPSETLSLTCAVSGHSISHDHAWSWVRQPPGEGLEWIGFISYSGITNYNPSLQGRVTISRDNSKNTLYLQMNSLRAEDTAVYYCARSLARTTAMDYWGEGTLVTVSSASTKGPSVFPLAPSSKSTSGGTAALGCLVKDYFPEPVTVSWNSGALTSGVHTFPAVLQSSGLYSLSSVVTVPSSSLGTQTYICNVNHKPSNTKVDKKVEPKSCDKTHTCPPCPAPELRGGPKVFLFPPKPKDTLYISRTPEVTCVVVDVSHEDPEVKFNWYVDGVEVHNAKTKPREEQYNSTYRVVSVLTVLHQDWLNGKEYKCKVSNKALPAPIEKTISKAKGQPREPQVYTLPPSRDELTKNQVSLTCLVKGFYPSDIAVEWESNGQPENNYKTTPPVLDSDGSFFLYSKLTVDKSRWQQGNVFSCSVMHEALDYHFTKKELSLSP light: not shown |
| 141 nM | IgG1-F1362 (antibody, EU numbering; copies: 2 + 2) heavy: QVQLQESGPGLVKPSETLSLTCAVSGHSISHDHAWSWVRQPPGEGLEWIGFISYSGITNYNPSLQGRVTISRDNSKNTLYLQMNSLRAEDTAVYYCARSLARTTAMDYWGEGTLVTVSSASTKGPSVFPLAPSSKSTSGGTAALGCLVKDYFPEPVTVSWNSGALTSGVHTFPAVLQSSGLYSLSSVVTVPSSSLGTQTYICNVNHKPSNTKVDKKVEPKSCDKTHTCPPCPAPELRGGPKVFLFPPKPKDTLYITRTPEVTCVVVDVSHEDPEVKFNWYVDGVEVHNAKTKPREEQYNSTYRVVSVLTVLHQDWLNGKEYKCKVSNKALPAPIEKTISKAKGQPREPQVYTLPPSRDELTKNQVSLTCLVKGFYPSDIAVEWESNGQPENNYKTTPPVLDSDGSFFLYSKLTVDKSRWQQGNVFSCSVMHEALDYHFTKKELSLSP light: not shown |
| 118 nM | IgG1-F1350 (antibody, EU numbering; copies: 2 + 2) heavy: QVQLQESGPGLVKPSETLSLTCAVSGHSISHDHAWSWVRQPPGEGLEWIGFISYSGITNYNPSLQGRVTISRDNSKNTLYLQMNSLRAEDTAVYYCARSLARTTAMDYWGEGTLVTVSSASTKGPSVFPLAPSSKSTSGGTAALGCLVKDYFPEPVTVSWNSGALTSGVHTFPAVLQSSGLYSLSSVVTVPSSSLGTQTYICNVNHKPSNTKVDKKVEPKSCDKTHTCPPCPAPELRGGPKVFLFPPKPKDTLYISRTPEVTCVVVDVSHEDPEVKFNWYVDGVEVHNAKTKPREEQYNSTYRVVSVLTVLHQDWLNGKEYKCKVSNKALPAPIEKTISKAKGQPREPQVYTLPPSRDELTKNQVSLTCLVKGFYPSDIAVEWESNGQPENNYKTTPPVLDSDGSFFLYSKLTVDKSRWQQGNVFSCSVMHEALHYHFTKKELSLSP light: not shown |
| 247 nM | IgG1-F1355 (antibody, EU numbering; copies: 2 + 2) heavy: QVQLQESGPGLVKPSETLSLTCAVSGHSISHDHAWSWVRQPPGEGLEWIGFISYSGITNYNPSLQGRVTISRDNSKNTLYLQMNSLRAEDTAVYYCARSLARTTAMDYWGEGTLVTVSSASTKGPSVFPLAPSSKSTSGGTAALGCLVKDYFPEPVTVSWNSGALTSGVHTFPAVLQSSGLYSLSSVVTVPSSSLGTQTYICNVNHKPSNTKVDKKVEPKSCDKTHTCPPCPAPELRGGPKVFLFPPKPKDTLYISRTPEVTCVVVDVSHEDPEVKFNWYVDGVEVHNAKTKPREEQYNSTYRVVSVLTVLHQDWLNGKEYKCKVSNKALPAPIEKTISKAKGQPREPQVYTLPPSRDELTKNQVSLTCLVKGFYPSDIAVEWESNGQPENNYKTTPPVLDSDGSFFLYSKLTVDKSRWQQGNVFSCSVMHEALDYHFTRKELSLSP light: not shown |
| 393 nM | IgG1-F1352 (antibody, EU numbering; copies: 2 + 2) heavy: QVQLQESGPGLVKPSETLSLTCAVSGHSISHDHAWSWVRQPPGEGLEWIGFISYSGITNYNPSLQGRVTISRDNSKNTLYLQMNSLRAEDTAVYYCARSLARTTAMDYWGEGTLVTVSSASTKGPSVFPLAPSSKSTSGGTAALGCLVKDYFPEPVTVSWNSGALTSGVHTFPAVLQSSGLYSLSSVVTVPSSSLGTQTYICNVNHKPSNTKVDKKVEPKSCDKTHTCPPCPAPELRGGPKVFLFPPKPKDTLYISRTPEVTCVVVDVSHEDPEVKFNWYVDGVEVHNAKTKPREEQYNSTYRVVSVLTVLHQDWLNGKEYKCKVSNKALPAPIEKTISKAKGQPREPQVYTLPPSRDELTKNQVSLTCLVKGFYPSDIAVEWESNGQPENNYKTTPPVLDSDGSFFLYSKLTVDKSRWQQGNVFSCSVMHEALDYHTTKKELSLSP light: not shown |
| 281 nM | IgG1-F1357 (antibody, EU numbering; copies: 2 + 2) heavy: QVQLQESGPGLVKPSETLSLTCAVSGHSISHDHAWSWVRQPPGEGLEWIGFISYSGITNYNPSLQGRVTISRDNSKNTLYLQMNSLRAEDTAVYYCARSLARTTAMDYWGEGTLVTVSSASTKGPSVFPLAPSSKSTSGGTAALGCLVKDYFPEPVTVSWNSGALTSGVHTFPAVLQSSGLYSLSSVVTVPSSSLGTQTYICNVNHKPSNTKVDKKVEPKSCDKTHTCPPCPAPELRGGPKVFLFPPKPKDTLYITRTPEVTCVVVDVSHEDPEVKFNWYVDGVEVHNAKTKPREEQYNSTYRVVSVLTVLHQDWLNGKEYKCKVSNKALPAPIEKTISKAKGQPREPQVYTLPPSRDELTKNQVSLTCLVKGFYPSDIAVEWESNGQPENNYKTTPPVLDSDGSFFLYSKLTVDKSRWQQGNVFSCSVMHEALHYHTTRKELSLSP light: not shown |
| 128 nM | IgG1-F1359 (antibody, EU numbering; copies: 2 + 2) heavy: QVQLQESGPGLVKPSETLSLTCAVSGHSISHDHAWSWVRQPPGEGLEWIGFISYSGITNYNPSLQGRVTISRDNSKNTLYLQMNSLRAEDTAVYYCARSLARTTAMDYWGEGTLVTVSSASTKGPSVFPLAPSSKSTSGGTAALGCLVKDYFPEPVTVSWNSGALTSGVHTFPAVLQSSGLYSLSSVVTVPSSSLGTQTYICNVNHKPSNTKVDKKVEPKSCDKTHTCPPCPAPELRGGPKVFLFPPKPKDTLYITRTPEVTCVVVDVSHEDPEVKFNWYVDGVEVHNAKTKPREEQYNSTYRVVSVLTVLHQDWLNGKEYKCKVSNKALPAPIEKTISKAKGQPREPQVYTLPPSRDELTKNQVSLTCLVKGFYPSDIAVEWESNGQPENNYKTTPPVLDSDGSFFLYSKLTVDKSRWQQGNVFSCSVMHEALHYHFTRKELSLSP light: not shown |
| 312 nM | IgG1-F1360 (antibody, EU numbering; copies: 2 + 2) heavy: QVQLQESGPGLVKPSETLSLTCAVSGHSISHDHAWSWVRQPPGEGLEWIGFISYSGITNYNPSLQGRVTISRDNSKNTLYLQMNSLRAEDTAVYYCARSLARTTAMDYWGEGTLVTVSSASTKGPSVFPLAPSSKSTSGGTAALGCLVKDYFPEPVTVSWNSGALTSGVHTFPAVLQSSGLYSLSSVVTVPSSSLGTQTYICNVNHKPSNTKVDKKVEPKSCDKTHTCPPCPAPELRGGPKVFLFPPKPKDTLYITRTPEVTCVVVDVSHEDPEVKFNWYVDGVEVHNAKTKPREEQYNSTYRVVSVLTVLHQDWLNGKEYKCKVSNKALPAPIEKTISKAKGQPREPQVYTLPPSRDELTKNQVSLTCLVKGFYPSDIAVEWESNGQPENNYKTTPPVLDSDGSFFLYSKLTVDKSRWQQGNVFSCSVMHEALDYHTTKKELSLSP light: not shown |
| 90.7 nM | IgG1-F1358 (antibody, EU numbering; copies: 2 + 2) heavy: QVQLQESGPGLVKPSETLSLTCAVSGHSISHDHAWSWVRQPPGEGLEWIGFISYSGITNYNPSLQGRVTISRDNSKNTLYLQMNSLRAEDTAVYYCARSLARTTAMDYWGEGTLVTVSSASTKGPSVFPLAPSSKSTSGGTAALGCLVKDYFPEPVTVSWNSGALTSGVHTFPAVLQSSGLYSLSSVVTVPSSSLGTQTYICNVNHKPSNTKVDKKVEPKSCDKTHTCPPCPAPELRGGPKVFLFPPKPKDTLYITRTPEVTCVVVDVSHEDPEVKFNWYVDGVEVHNAKTKPREEQYNSTYRVVSVLTVLHQDWLNGKEYKCKVSNKALPAPIEKTISKAKGQPREPQVYTLPPSRDELTKNQVSLTCLVKGFYPSDIAVEWESNGQPENNYKTTPPVLDSDGSFFLYSKLTVDKSRWQQGNVFSCSVMHEALHYHFTKKELSLSP light: not shown |
| 433 nM | IgG1-F1353 (antibody, EU numbering; copies: 2 + 2) heavy: QVQLQESGPGLVKPSETLSLTCAVSGHSISHDHAWSWVRQPPGEGLEWIGFISYSGITNYNPSLQGRVTISRDNSKNTLYLQMNSLRAEDTAVYYCARSLARTTAMDYWGEGTLVTVSSASTKGPSVFPLAPSSKSTSGGTAALGCLVKDYFPEPVTVSWNSGALTSGVHTFPAVLQSSGLYSLSSVVTVPSSSLGTQTYICNVNHKPSNTKVDKKVEPKSCDKTHTCPPCPAPELRGGPKVFLFPPKPKDTLYISRTPEVTCVVVDVSHEDPEVKFNWYVDGVEVHNAKTKPREEQYNSTYRVVSVLTVLHQDWLNGKEYKCKVSNKALPAPIEKTISKAKGQPREPQVYTLPPSRDELTKNQVSLTCLVKGFYPSDIAVEWESNGQPENNYKTTPPVLDSDGSFFLYSKLTVDKSRWQQGNVFSCSVMHEALDYHTTRKELSLSP light: not shown |
| 352 nM | IgG1-F1361 (antibody, EU numbering; copies: 2 + 2) heavy: QVQLQESGPGLVKPSETLSLTCAVSGHSISHDHAWSWVRQPPGEGLEWIGFISYSGITNYNPSLQGRVTISRDNSKNTLYLQMNSLRAEDTAVYYCARSLARTTAMDYWGEGTLVTVSSASTKGPSVFPLAPSSKSTSGGTAALGCLVKDYFPEPVTVSWNSGALTSGVHTFPAVLQSSGLYSLSSVVTVPSSSLGTQTYICNVNHKPSNTKVDKKVEPKSCDKTHTCPPCPAPELRGGPKVFLFPPKPKDTLYITRTPEVTCVVVDVSHEDPEVKFNWYVDGVEVHNAKTKPREEQYNSTYRVVSVLTVLHQDWLNGKEYKCKVSNKALPAPIEKTISKAKGQPREPQVYTLPPSRDELTKNQVSLTCLVKGFYPSDIAVEWESNGQPENNYKTTPPVLDSDGSFFLYSKLTVDKSRWQQGNVFSCSVMHEALDYHTTRKELSLSP light: not shown |

Reference: patent US20200199241A1 (Chugai, published 2020)
